Test [1] deals with RpYN06 Spike, full-length, on the cell surface (Betacoronavirus sp. RpYN06, strain …, strain). Put plainly: flow cytometry on cells. Particulars: one partner purified.
Test [2] addresses T1, SARS-CoV-2 RBD (recombinant receptor binding domain of Spike) (SARS-CoV-2, UniProt P0DTC2). Put plainly: ELISA. As to conditions: both partners purified.
The target of test [3] is T1, SARS-CoV-2 RBD (recombinant receptor …). Nature of the test: SPR. As to conditions: both partners purified.

B1: V1WT_06 IgG (antibody, V domains shown)
VH: EVQLVQSGAEVKKPGASVKVSCKASGYTFSSHGISWVRQAPGQGLEWMGWISTYNGNTNSAQNLQGRVTMTADTSTSTAYMELRSLRSDDTAVYYCARGPWGYCSGTSCYYWTPDNPAYSYHGMDVWGQGTTVTVSS
VL: not shown
notes: copies: 2 + 2
As to B1, in test [1], the binding result was “binds”.

B2: V1WT_06 Fab (Fab, V domains shown)
VH: B1 VH
VL: not shown
In the case of B2, the binding result in test [2] was “binds”.

B3: V1WT_41 IgG (antibody, V domains shown)
VH: QVQLQESGPGLVKPSETVSVTCTVSGGSITRSNYYWGWIRQPPGKGLEWIGSIFYNGNTNYNPSLKSRLTISVDTSKNQFSLKLSSVTAADTAVYYCARTAPYYYDRSGYYQKEEYFQRWGQGTLVTVSS
VL: EIVMTQSPSTLSASVGDRVTITCRASQSISTWLAWYQQKPGKAPNLLIYQASSLESGVPSRFSGSGSGTEFTLTISSLQPDDFATYYCQQYNNYPRTFGQGTKLEIK
notes: copies: 2 + 2
Regarding B3, the binding result in test [2] and in test [1] was “binds” each time.

B4: VA14_26 IgG (antibody, V domains shown)
VH: QVQLQQWGAGLLKPSDTLSLTCGISGGPFSGYYWSWIRQPPGKGLEWLGEINHSGITTYNPSLKSRGTISVDTSKRQISLKLASVTAADTAVYYCARFAYGDYGWDYSSDMDVWGKGTTVTVSS
VL: DIQLTQSPSTLSASVGDRVTITCRASQSISTWLAWHQQIPGKAPKLLIYRASTLQSGVPSRFSGSGSGTEFTLTISSLQPDDFATYYCQQYYSVRTFGQGTKVDIK
notes: copies: 2 + 2
As for B4, the binding result in test [3] and in test [1] was “binds” throughout.

The values above are taken from publication PMC13630248 (PLOS Biology, 2026).
